Results: patent US20140087995A1 (published 2014)
Numbered stars: 1 amine (or outer) side, 2 acyl side, 3 side chain; on linkers, the order of the positions; unused ones are H or OH. Bridge positions count the residues as written; N and C are the ends. Square brackets hold non-standard residues; d marks the D form. Side chains are listed from the residue outwards. Ends that are not written are not given here. * marks the point of attachment. C20 diacid = O=C(O)CCCCCCCCCCCCCCCCCCC(=O)*; γGlu = O=C(O)[C@H](CCC(=O)[*:2])N[*:1]

T1: human amylin receptor (amylin 3(a) receptor: human calcitonin receptor with RAMP-3) (human, UniProt P30988 25-474; O60896 24-148, limits assumed)
T1 sequence (looked up) 1: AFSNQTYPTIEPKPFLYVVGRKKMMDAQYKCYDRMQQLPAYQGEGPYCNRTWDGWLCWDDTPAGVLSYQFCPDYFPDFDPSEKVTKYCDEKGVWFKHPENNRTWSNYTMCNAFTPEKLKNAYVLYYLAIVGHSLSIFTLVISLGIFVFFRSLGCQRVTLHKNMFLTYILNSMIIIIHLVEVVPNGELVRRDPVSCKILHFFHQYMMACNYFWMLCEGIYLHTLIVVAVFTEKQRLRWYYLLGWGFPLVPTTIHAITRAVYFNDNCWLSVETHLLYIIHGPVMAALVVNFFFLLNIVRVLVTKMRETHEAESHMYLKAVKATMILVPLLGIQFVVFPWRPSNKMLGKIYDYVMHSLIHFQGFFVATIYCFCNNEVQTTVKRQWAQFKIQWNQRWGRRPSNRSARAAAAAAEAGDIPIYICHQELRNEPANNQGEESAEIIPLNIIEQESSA
T1 sequence (looked up) 2: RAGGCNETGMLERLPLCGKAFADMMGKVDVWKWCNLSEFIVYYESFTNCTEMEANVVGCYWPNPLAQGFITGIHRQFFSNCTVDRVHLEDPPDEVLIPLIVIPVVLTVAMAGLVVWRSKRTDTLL

T2: human calcitonin receptor (human, UniProt P30988 25-474)
T2 sequence (looked up): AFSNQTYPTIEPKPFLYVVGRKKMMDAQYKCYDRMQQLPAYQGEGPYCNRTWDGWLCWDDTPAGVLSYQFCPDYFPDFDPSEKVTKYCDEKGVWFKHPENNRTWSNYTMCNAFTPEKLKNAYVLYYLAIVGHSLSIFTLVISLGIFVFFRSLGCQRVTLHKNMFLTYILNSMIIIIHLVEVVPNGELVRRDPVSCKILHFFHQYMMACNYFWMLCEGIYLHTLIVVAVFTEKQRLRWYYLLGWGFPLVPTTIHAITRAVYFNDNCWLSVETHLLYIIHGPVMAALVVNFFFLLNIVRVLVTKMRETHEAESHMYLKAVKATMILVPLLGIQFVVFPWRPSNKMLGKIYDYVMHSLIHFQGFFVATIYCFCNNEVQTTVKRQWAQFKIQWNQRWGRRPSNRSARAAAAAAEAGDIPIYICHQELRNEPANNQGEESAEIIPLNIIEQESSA

T3: human calcitonin receptor (human, UniProt P30988 25-474)
T3 construct: whole, on cells; also called hCTR; hCT
T3 sequence (looked up): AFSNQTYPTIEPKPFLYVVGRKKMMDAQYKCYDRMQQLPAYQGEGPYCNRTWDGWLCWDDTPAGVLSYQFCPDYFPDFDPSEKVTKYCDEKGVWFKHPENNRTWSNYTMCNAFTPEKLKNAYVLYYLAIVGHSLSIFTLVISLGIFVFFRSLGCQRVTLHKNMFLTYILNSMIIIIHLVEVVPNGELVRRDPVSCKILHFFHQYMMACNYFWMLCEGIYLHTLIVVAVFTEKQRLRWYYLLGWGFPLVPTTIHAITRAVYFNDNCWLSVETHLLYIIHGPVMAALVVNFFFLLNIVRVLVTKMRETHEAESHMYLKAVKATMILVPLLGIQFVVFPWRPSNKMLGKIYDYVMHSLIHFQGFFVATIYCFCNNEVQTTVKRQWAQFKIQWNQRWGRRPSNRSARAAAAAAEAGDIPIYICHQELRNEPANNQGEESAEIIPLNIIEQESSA

B1: N^ε1-[(4S)-4-carboxy-4-[[(4S)-4-carboxy-4-(19-carboxynonadecanoylamino)butanoyl]amino]butanoyl]-[D-Asp14,Arg17,Pro21,Pro27,Arg35]-h-amylin (peptide)
peptide: K([γGlu-γGlu-C20 diacid])CNTATCATQRLA[dD]FLRHSSPNFGAIPSSTNVGSRTY-NH2
modifications: disulfide 2-7; N-terminus assumed
SMILES: CC[C@H](C)[C@H](NC(=O)[C@H](C)NC(=O)CNC(=O)[C@H](Cc1ccccc1)NC(=O)[C@H](CC(N)=O)NC(=O)[C@@H]1CCCN1C(=O)[C@H](CO)NC(=O)[C@H](CO)NC(=O)[C@H](Cc1c[nH]cn1)NC(=O)[C@H](CCCNC(=N)N)NC(=O)[C@H](CC(C)C)NC(=O)[C@H](Cc1ccccc1)NC(=O)[C@@H](CC(=O)O)NC(=O)[C@H](C)NC(=O)[C@H](CC(C)C)NC(=O)[C@H](CCCNC(=N)N)NC(=O)[C@H](CCC(N)=O)NC(=O)[C@@H](NC(=O)[C@H](C)NC(=O)[C@@H]1CSSC[C@H](NC(=O)[C@@H](N)CCCCNC(=O)CC[C@H](NC(=O)CC[C@H](NC(=O)CCCCCCCCCCCCCCCCCCC(=O)O)C(=O)O)C(=O)O)C(=O)N[C@@H](CC(N)=O)C(=O)N[C@@H]([C@@H](C)O)C(=O)N[C@@H](C)C(=O)N[C@@H]([C@@H](C)O)C(=O)N1)[C@@H](C)O)C(=O)N1CCC[C@H]1C(=O)N[C@@H](CO)C(=O)N[C@@H](CO)C(=O)N[C@H](C(=O)N[C@@H](CC(N)=O)C(=O)N[C@H](C(=O)NCC(=O)N[C@@H](CO)C(=O)N[C@@H](CCCNC(=N)N)C(=O)N[C@H](C(=O)N[C@@H](Cc1ccc(O)cc1)C(N)=O)[C@@H](C)O)C(C)C)[C@@H](C)O

How the values were obtained:
[1] = target: T1, human amylin receptor (amylin 3(a) …); experiment: cell-based or functional assay
[2] = target: T2, human calcitonin receptor; experiment: cell-based or functional assay
[3] = target: T3, human calcitonin receptor; experiment: SPA competition against 125I-calcitonin, membranes of BHK cells with human calcitonin receptor (Assay VII)
Summary of the method: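 BHK hCTR membranes 35 ng/μL + SPA beads 0.05 mg/well; buffer 50 mM Hepes pH 7.4, 1 mM CaCl2, 5 mM MgCl₂, 0.1% OA, 0.02% Tween20. 120 min, 25° C., shaking. Scintillation count; IC50 by one-site binding competition.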

| Binder | Ratio hCT/hAmylin funct. [1] | hAmylin-R funct. EC50 (pM) [1] [pM] | hCTR funct. EC50 (pM) [2] [pM] | IC50 [3] [nM] |
| --- | --- | --- | --- | --- |
| K([γGlu-γGlu-C20 diacid])CNTATCATQRLAEFLRHSSPNFGAIPSSTNVGPNTF-NH2 (disulfide 2-7 (inferred)) | 9.9 | 216 | 2140 | – |
| K([γGlu-γGlu-C20 diacid])CNTATCATQRLAEFLRHSSPNFGAILSSTPVGPETY-NH2 (disulfide 2-7 (inferred)) | 5.8 | 222 | 1280 | – |
| K([γGlu-γGlu-C20 diacid])CNTATCATQRLAEFLRHSSNNPGAILSSTNVGPETY-NH2 (disulfide 2-7 (inferred)) | – | 5170 | 89600 | – |
| K([γGlu-γGlu-C20 diacid])CNTATCATQRLASFLRHSSPNFGAIPSSTNVGPETY-NH2 (disulfide 2-7 (inferred), also called compound 120) | 8.1 | 109 | 887 | – |
| K([γGlu-C20 diacid])CNTATCATQRLADFLRHSSPNFGAIPSSTNVGPETY-NH2 (disulfide 2-7 (inferred)) | 3.9 | 288 | 1120 | – |
| B1 | – | – | – | 112 |
